Reference: patent EP2105446A2 (ZymoGenetics, Inc., dated 2009)
Blank lines part the entries; values can stand above or below the binder they belong to.

Key:
[1] = target: factor present in the activated monkey spleen conditioned media (monkey); assay: cell-based or functional assay
[2] = target: factor present in the activated CD3+ selected human T-cell conditioned media (human); assay: cell-based or functional assay

- inhibition of BaF3/Zalpha11 cell growth (Alamar Blue), concentration giving complete inhibition [1]: 10 µg/mL
- titration of soluble receptor, lowest concentration giving complete inhibition of BaF3/Zalpha11 growth [1]: 20 ng/mL
- inhibition of BaF3/Zalpha11 cell growth (Alamar Blue), concentration giving complete inhibition [2]: 10 µg/mL
- titration of soluble receptor, lowest concentration giving complete inhibition of BaF3/Zalpha11 growth [2]: 20 ng/mL
B1: zalpha11CEE soluble receptor (zalpha11 extracellular domain with C-terminal Glu-Glu tag) (receptor)
chain: not shown

- inhibition of BaF3/Zalpha11 cell growth (Alamar Blue), concentration giving complete inhibition [1]: 10 µg/mL
- titration of soluble receptor, lowest concentration giving complete inhibition of BaF3/Zalpha11 growth [1]: 20 ng/mL
- inhibition of BaF3/Zalpha11 cell growth (Alamar Blue), concentration giving complete inhibition [2]: 10 µg/mL
- titration of soluble receptor, lowest concentration giving complete inhibition of BaF3/Zalpha11 growth [2]: 20 ng/mL
B2: zalpha11CFLG soluble receptor (zalpha11 extracellular domain with C-terminal FLAG tag) (receptor)
chain: not shown
